Measured values from US7371376.

Assays:
[1] = molecular target: human ErbB2 receptor on BT474 human breast tumor cells (human) (UniProt P04626); test: Scatchard analysis, 125I-antibody on BT474 cell monolayers, on ice
[2] = molecular target: human ErbB2 receptor on BT474 human breast tumor cells (human) (UniProt P04626); test: cell-based or functional assay

Substance: anti-ErbB2 IgG1κ murine monoclonal antibody 4D5 (ATCC CRL 10463)
- Kd [1]: 6.5 nM
- % apoptosis of BT474 cell population (Hoechst 33342 cell cycle analysis, 3 days) [2]: 41.9%
- proportion of S-phase cells (BT474, 3 days) [2]: 5.4%
